In publication PMC6318328, “Structural insights into trans-histone regulation of H3K4 methylation by unique histone H4 binding of MLL3/4” (Nature Communications, 2019):

Molecular target: MLL3 ePHD6 E1097A (human) (UniProt Q8NEZ4)
Test: ITC; peptide (1–2 mM) in the syringe injected into protein (50–100 μM) in the cell; 25 °C; 20 mM Tris pH 7.5, 150 mM NaCl; single-site binding model

“histone H4 peptide H4_(11–21) (from UniProt P62805 12-22)” showed a fold reduction of binding against the wild type of 2 fold.
